Experimental data published in patent publication US20130150294.

Test system: purified recombinant full-length Src from Upstate Biotechnology

## purified pig kidney Na+/K+-ATPase (PKE)
  Src-mediated tyrosine phosphorylation (commercial kinase assay kit): the Na+/K+-ATPase kept Src in an inactive state, addition of ouabain restored the kinase activity
